Assay results: patent US20240174754A1 (published 2024)

Tests used:
Human CD8+ T Cells [1] = experiment: FACS binding to human CD8+ T cells; Donor KP63218
Human CD8+ T Cells [2] = experiment: FACS binding to human CD8+ T cells; Donor KP63715

- EC50 (Human CD8+ T Cells [1]): 10.8 ng/mL
- EC50 (Human CD8+ T Cells [2]): 3.18 ng/mL
B1: PA015 (antibody, V domains shown)
VH: QVTLRESGPALVKPTQTLTLTCTVSGFSLSTFGMGVGWIRQPPGKALEWLAHIWWDDDKWYELALKSRLTISKDTSKNQVVLTITNMDPVDTATYYCARVIYYGSRSAYYSMDYWGQGTTVTVSS
VL: DVVMTQTPLSLSVTPGQPASISCKSSQSIVHSNAHTYLEWYLQKPGQSPQLLIYKVSNRFSGVPDRFSGSGSGTDFTLKISRVEAEDVGVYYCFQGSHVPVTFGQGTKLEIKR
